“Also recorded” adds a separate entry of the source.
Key:
Type in all cases: cell-based
Primary human HSCs [1] = assay: Secretion of pro-fibrogenic factors by stimulated HSCs, Luminex (Example 9); details: 48 h
Experimental: Primary human HSCs were grown to confluence and maintained in growth media for 10 days. Cells were maintained in serum-free media for 48 h and subsequently stimulated with either human Chymase (30, 100 or 300 ng/mL), human tryptase alone (300, 1000, 3000 ng/mL) or in combination with chymase for a further 48 h. The TGFβ1 (3 ng/mL) served as a positive control and serum-free conditions as a negative control. Media was removed after 48 h and levels of secreted IGFBP-3, Tenascin C, Collagen IV and Endostatin levels were determined by Luminex.

[2] = test system: Primary human hepatic stellate cells (HSCs); assay: Collagen type I production by stimulated HSCs, western blot (Example 7); details: 48 h stimulation, chymase 30, 100 or 300 ng/mL, tryptase 300, 1000, 3000 ng/mL, alone or in combination
Experimental: Primary human hepatic stellate cells (HSCs) were grown to confluence and maintained in growth media for 10 days. Cells were maintained in serum-free media for 48 h and subsequently stimulated with either human chymase alone (30, 100 or 300 ng/mL), human tryptase alone (300, 1000, 3000 ng/mL) or human chymase and tryptase in combination as indicated for a further 48 h. The PAR2 agonist at 10 or 100 ng/mL and TGFb1 (3 ng/mL) served as a positive control, whilst serum-free conditions provided a negative control.
Media was removed and the cells and extracellular proteins deposited lysed in RIPA buffer.

[3] = test system: Primary human hepatic stellate cells (HSCs); assay: Deposited collagen type I in stimulated HSCs, immunofluorescence (Example 8)
Experimental: Primary human hepatic stellate cells (HSCs) were grown for 2 days. Cells were maintained in serum-free media for 48 h and subsequently stimulated with either human chymase (C) at 100 ng/mL, human tryptase (T) alone at 1000 ng/mL) or in combination (C 100 ng T 1000 ng) as indicated for a further 48 h. TGFβ1 served as a positive control, and serum-free conditions (SFM) as a negative control.
Following stimulation, media was removed and the cells washed in PBS and fixed with Formalin 4% for 15 min. Cells and extracellular proteins were stained with Rb ANTI-Col I (Novus Biologicals, NB600-408, 1:500) and images were acquired at 20× using a confocal microscope.

Primary human HSCs [4] = assay: Active/latent TGFβ in HSC conditioned media, TGFb-responsive luciferase reporter cells (Example 10); details: conditioned media heated at 80° C. for 10 minutes; chymase 100 (C2) and 30 ng/mL (C3)
Experimental: Primary human HSCs were grown to confluence and maintained in growth media for 10 days. Cells were maintained in serum-free media for 48 h and subsequently stimulated with either human Chymase (30, 100 or 300 ng/mL), human tryptase (300, 1000, 3000 ng/mL) or both in combination as indicated for a further 48 h. The TGFb1 (3 ng/mL) served at positive control and serum-free conditions as a negative control.
Conditioned media was collected and either transferred directly to cells harbouring a TGFb-responsive promoter linked to the firefly luciferase reporter gene for 24 h to determine the levels of active TGFb present in media, or conditioned media was heated at 80° C. for 10 minutes in order to activate in the conditioned media the latent TGFb into active TGFb present. The addition of exogenous TGFb1 (1 ng/mL served as a positive control. Cells were lysed after 24 h and levels of latent or active TGFb determined by measuring luciferase activity. The results are shown in FIG. 11.

[5] = chymase 100 ng/mL, tryptase 1000 ng/mL, 48 h

B1: chymase: human chymase, mast cell serine protease, added exogenously to stimulate hepatic stellate cells (protein, UniProt P23946 22-247, looked up)
Chymase: IIGGTECKPHSRPYMAYLEIVTSNGPSKFCGGFLIRRNFVLTAAHCAGRSITVTLGAHNITEEEDTWQKLEVIKQFRHPKYNTSTLHHDIMLLKLKEKASLTLAVGTLPFPSQFNFVPPGRMCRVAGWGRTGVLKPGSDTLQEVKLRLMDPQACSHFRDFDHNLQLCVGNPRKTKSAFKGDSGGPLLCAGVAQGIVSYGRSDAKPPAVFTRISHYRPWINQILQAN
- secreted IGFBP3 (Primary human HSCs [1]; regardless of concentration): marked increase
- secreted Tenascin C (Primary human HSCs [1]; chymase 30, 100 or 300 ng/mL): concentration-dependent increase
- secreted collagen IV (Primary human HSCs [1]; chymase 30, 100 or 300 ng/mL): concentration-dependent increase
- secreted endostatin (Primary human HSCs [1]; chymase at all concentrations): significant increase
- collagen type I protein compared to basal levels in untreated cells [2]: marked increase
- cell number (nuclear stain Hoechst) ([3]; C100 ng/mL, T1000 ng/mL, C100/T1000 ng/mL, relative to serum-free medium and TGF-beta controls): no effect
- deposited collagen type I (collagen area / immunofluorescence intensity normalised to cell number) relative to SFM [3, 5]: did not induce a significant change
- distribution of deposited collagen type I compared to serum-free alone (SFM) [3, 5]: change in distribution; also recorded: altered collagen distribution patterns
- secreted latent TGFβ in conditioned media (Primary human HSCs [4]): increases
